Numbering of substitutions follows the chain as printed. In names and notes the source's numbering stands.

The chains are these.
B1: NARA1 (antibody, mouse IgG2a, kappa, V domains shown)
VH: QVQLQQSGAELVRPGTSVKVSCKASGYAFTNYLIEWVKQRPGQGLEWIGVINPGSGGTNYNEKFKGKATLTADKSSSTAYMQLSSLTSDDSAVYFCARWRGDGYYAYFDVWGAGTTVTVSS
VL: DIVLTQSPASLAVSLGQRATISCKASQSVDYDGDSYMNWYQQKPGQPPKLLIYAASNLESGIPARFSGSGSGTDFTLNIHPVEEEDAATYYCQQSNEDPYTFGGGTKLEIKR
notes: Mouse monoclonal anti-human IL-2 antibody, mouse IgG2a; also called anti-IL-2 (NARA1)-mIgG2a; anti-IL-2 (NARA1)-mouse IgG2a
B2: 104349 (antibody, V domains shown)
VH: EVQLVQSGAEVKKPGESLKISCKGSGYAFTNYLIEWVRQMPGKGLEWMGVINPGSGGTNYNEKFKGQVTISADKSISTAYLQWSSLKASDTAMYYCARWRGDGYYAYFDVWGQGTTVTVSS
VL: DIVLTQSPLSLPVTLGQPASISCKASQSVDYDGDSYMNWYQQRPGQSPRLLIYAASNLESGVPDRFSGSGSGTDFTLKISRVEAEDVGVYYCQQSNEDPYTFGGGTKVEIK
notes: VH5/VK2
B3: 104348 (antibody, human IgG1, kappa, N297A, V domains shown)
VH: B2 VH
VL: AIRLTQSPSSFSASTGDRVTITCKASQSVDYDGDSYMNWYQQKPGKAPKLLIYAASNLESGVPSRFSGSGSGTDFTLTISSLQSEDFATYYCQQSNEDPYTFGGGTKVEIKR
notes: VH5/VK1, human IgG1 N297A
B4: 104343 (antibody, human IgG1, kappa, N297A, V domains shown)
VH: QVQLVQSGAEVKKPGSSVKVSCKASGYAFTNYLIEWVRQAPGQGLEWMGVINPGSGGTNYNEKFKGRVTITADKSTSTAYMELSSLRSEDTAVYYCARWRGDGYYAYFDVWGQGTTVTVSS
VL: DIVLTQSPLSLPVTLGQPASISCKASQSVDYDGDSYMNWYQQRPGQSPRLLIYAASNLESGVPDRFSGSGSGTDFTLKISRVEAEDVGVYYCQQSNEDPYTFGGGTKVEIKR
notes: VH1/VK2, human IgG1 N297A
B5: 104347 (antibody, V domains shown)
VH: QVQLVESGGGVVQPGRSLRLSCAASGYTFSSYLIEWVRQAPGKGLEWVAVINPGSGGTNYADSVKGRFTISADKSKNTAYLQMNSLRAEDTAVYYCARWRGDGYYAYFDVWGQGTTVTVSS
VL: EIVLTQSPATLSVSPGERATLSCRASQSVSYDGDSYMNWYQQKPGQAPRLLIYAASNLASGIPARFSGSGSGTEFTLTISSLQSEDAAVYYCQQSNEDPYTFGGGTKVEIK
notes: VH3s/VK3s
B6: 104348_VH5D98E_VK1D28Q (antibody, human IgG1, kappa, N297A, V domains shown)
VH: B2 VH with D102E
VL: B3 VL with D32Q
notes: also called Antibody No: 1; parental antibody
B7: 104348_VH5_VK1D28Q (antibody, V domains shown)
VH: B2 VH
VL: AIRLTQSPSSFSASTGDRVTITCKASQSVDYQGDSYMNWYQQKPGKAPKLLIYAASNLESGVPSRFSGSGSGTDFTLTISSLQSEDFATYYCQQSNEDPYTFGGGTKVEIK
notes: Human IgG1 Fc domain with the N297A point mutation

T1 sequence (P60568 21-153 limits assumed): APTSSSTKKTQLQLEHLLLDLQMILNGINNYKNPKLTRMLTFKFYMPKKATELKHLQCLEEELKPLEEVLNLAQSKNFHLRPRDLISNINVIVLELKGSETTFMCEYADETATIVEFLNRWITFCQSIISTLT

One test addresses T1, human IL-2 (wildtype) (human, UniProt P60568 21-153).
T1 construct: also called IL-2 (WT); IL-2 wt
Briefly: SET assay (solution equilibration titration, MSD).
On to B1, for which the binding result is reported as “binds”.
Still for that read-out and setting: the same measure for B2: “binds”.
On to B3, for which the binding result is reported as “binds”.
On the same count and under the same terms, with B4 the entry was “binds”.
As for B5, the binding result was “binds”.

For another test, the target named is T2, Proleukin® (aldesleukin) (human, UniProt P60568 21-153, limits assumed).
T2 construct: Variant of human wt IL-2 with C145S (C125S on mature IL-2); also called IL-2 (Proleukin®); human IL-2 (Proleukin)
T2 sequence (P60568 other isoform, or with tags, fused parts or gaps limits assumed): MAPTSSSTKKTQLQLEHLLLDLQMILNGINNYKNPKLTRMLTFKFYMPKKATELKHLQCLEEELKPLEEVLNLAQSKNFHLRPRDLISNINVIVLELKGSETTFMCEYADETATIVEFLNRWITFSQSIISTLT
The test is described as follows: ELISA, coated Proleukin, mean of 3 experiments.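 Note: binding of anti-human IL-2 antibodies, tested as an 11-point dilution series for 2 hours, to plate-bound IL-2, detected via streptavidin-HRP with absorbance read at 450 nm.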
Description: ELISA plates (Corning) were coated with human IL-2 (Proleukin) at 10 μg/mL in PBS overnight at 4° C. The plates were washed 6 times with PBST, then blocked in 1% BSA/PBST for 2 hours. After blocking and washing, the anti-human IL-2 antibodies were added on the plate in an 11-point dilution series in 1% BSA/PBST and incubated for 2 hours. […] The plates were then washed again and incubated with Streptavidin-Horseradish Peroxidase in 1% BSA/PBS for 45 minutes. After washing, the substrate (R&D Systems) was added into the plates and the enzymatic reaction was stopped after 3 minutes by adding Stop Solution. The plates were read by a microplate reader at 450 nm with a wavelength correction set to 540 nm.
What is called EC50 is the concentration at which the effect is half-maximal. For the molecule B1, the EC50 is 0.3 nM.
Same read-out and setting: the same measure for B6: 1.18 nM; for B2: 0.3 nM.
Still for that read-out and setting: with B7 the figure was 0.97 nM; with B3, 0.3 nM.
Still for that read-out and setting: with B4 the figure was 0.3 nM.
In turn, B5 showed an EC50 of 39 nM.

Another test deals with T2, Proleukin® (aldesleukin). The test is described as follows: ELISA, coated Proleukin, HEK293F supernatant 1:2.
Regarding B6, the “ELISA value (Normal ELISA)” value was 1180 luminescence signal, the “ELISA value (wash 3x every hour for 4 HRS)” value turned out to be 1060 luminescence signal and the “ELISA value (wash 3x every hour for 12 HRS)” value turned out to be 717 luminescence signal.

Another test has as its target T2, Proleukin® (aldesleukin). Briefly: SET assay (solution equilibration titration, MSD).
Description: A 22 serial 2n dilution of the antigen was prepared in sample buffer. A constant concentration of the antibody was added. […] A volume of 60 μl of each antigen:antibody mix was distributed in duplicates to a 384-well polypropylene microtiter plate (PP MTP). Sample buffer served as negative control and a sample containing no antigen as positive control (Bₘₐₓ). The plate was sealed and incubated overnight (o/n) at room temperature (RT). A 384-well standard MSD array plate was coated o/n with 2 μg/ml of IL-2. After three times washing with washing buffer, the plate was blocked with 50 μl/well blocking buffer for 1 hour at RT. After washing, a volume of 30 μl/well of the antigen:antibody mix was transferred from the PP MTP to the coated MSD plate and incubated for 20 min at RT. After an additional wash step, 30 μl of detection antibody (diluted 1:2000) in sample buffer was added to each well and incubated for 30 min at RT. The MSD plate was washed and 35 μl/well of read buffer was added and incubated for 5 min. ECL signals were measured with the MSD SECTOR Imager 6000.
A word on the Kd: it is the concentration at which binding is half-saturated. As for B1, the Kd came to 0.078 nM.
Same read-out and setting: with B6 the figure was 0.272 nM.
The molecule B2 returned a dissociation constant Kd of 0.082 nM.
Same read-out and setting: with B7 the figure was 0.155 nM; with B3, 0.105 nM; with B4, 0.075 nM.
The molecule B5 gave a Kd of 10 nM.

In the next test the target is T2, Proleukin® (aldesleukin). Briefly: ELISA, coated Proleukin, serially diluted supernatant. (In general: In an ELISA, binding on a coated surface is turned into a signal by an enzyme label.)
B6 had a concentration for a half-maximal effect (EC50) of 1.04 nM.
